Target: hexa-histidine tagged ComP from A. baylyi ADP1 (ComPADP1)

B1: PglS oligosaccharyltransferase from A. baylyi ADP1 (PglSADP1) (protein)
chain: MNSIFKKIKNYTIVSGVFFLGSAFIIPNTSNLSSTLYKELIAVLGLLILLTVKSFDYKKILIPKNFYWFLFVIFIIFIQLIVGEIYFFQDFFFSISFLVILFLSFLLGFNERLNGDDLIVKKIAWIFIIVVQISFLIAINQKIEIVQNFFLFSSSYNGRSTANLGQPNQFSTLILITLFLLCYLREKNSLNNMVFNILSFCLIFANVMTQSRSAWISVILISLLYLLKFQKKIELRRVIFFNIVFWTLVYCVPLLFNLIFFQKNSYSTFDRLTMGSSRFEIWPQLLKAVFHKPFIGYGWGQTGVAQLETINKSSTKGEWFTYSHNLFLDLMLWNGFFIGLIISILILCFLIELYSSIKNKSDLFLFFCVVAFFVHCLLEYPFAYTYFLIPVGFLCGYISTQNIKNSISYFNLSKRKLTLFLGCCWLGYVAFWVEVLDISKKNEIYARQFLFSNHVKFYNIENYILDGFSKQLDFQYLDYCELKDKYQLLDFKKVAYRYPNASIVYKYYSISAEMKMDQKSANQIIRAYSVIKNQKIIKPKLKFCSIEY
- glycosylation of acceptor with K. pneumoniae K1 or K2 capsular polysaccharide, western blot: PglS was able to glycosylate ComP with the K1 and K2 capsular polysaccharides from K. pneumonia

Source: patent US20240262870
